# In US20060240570A1 (AXIS SHIELD ASA, published 2006):
# Positions of bridges follow the written chain, without caps; N, C: chain ends. No end group written: not given here.
# T1: human holotranscobalamin (holoTC) (human, UniProt P20062 19-427, cobalamin bound (non-covalent complex))
# T1 construct: Recombinant human holoTC in the SPR work; also called holo-TCII
# T1 chain: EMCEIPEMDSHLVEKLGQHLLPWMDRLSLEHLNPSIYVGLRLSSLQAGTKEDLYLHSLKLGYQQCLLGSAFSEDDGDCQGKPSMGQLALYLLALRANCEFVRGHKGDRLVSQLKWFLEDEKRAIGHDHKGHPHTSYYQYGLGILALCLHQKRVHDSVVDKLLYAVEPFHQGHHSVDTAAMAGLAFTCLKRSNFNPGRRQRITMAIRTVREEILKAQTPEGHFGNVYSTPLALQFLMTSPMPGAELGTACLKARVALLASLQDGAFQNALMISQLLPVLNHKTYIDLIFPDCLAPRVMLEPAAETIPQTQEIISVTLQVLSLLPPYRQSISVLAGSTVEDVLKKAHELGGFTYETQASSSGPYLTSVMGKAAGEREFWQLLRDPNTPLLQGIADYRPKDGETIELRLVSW
# T2: human TC with the common polymorphism P259R (human, UniProt P20062 19-427)
# T2 sequence: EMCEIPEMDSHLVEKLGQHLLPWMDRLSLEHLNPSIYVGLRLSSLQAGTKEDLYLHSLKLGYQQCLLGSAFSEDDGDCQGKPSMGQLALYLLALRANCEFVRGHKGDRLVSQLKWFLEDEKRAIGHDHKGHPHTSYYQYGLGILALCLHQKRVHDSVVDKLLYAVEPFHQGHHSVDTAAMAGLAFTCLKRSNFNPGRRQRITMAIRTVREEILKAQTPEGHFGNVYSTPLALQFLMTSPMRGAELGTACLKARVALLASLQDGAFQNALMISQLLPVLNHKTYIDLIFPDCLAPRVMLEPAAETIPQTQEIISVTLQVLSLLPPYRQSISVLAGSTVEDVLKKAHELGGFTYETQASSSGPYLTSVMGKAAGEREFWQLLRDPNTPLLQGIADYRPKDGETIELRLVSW
# What was measured:
# [1] = biological target: T1, human holotranscobalamin (holoTC); assay: SPR (Biacore); holoTC against apoTC
# [2] = biological target: T2, human TC with the common polymorphism …; assay: method not detailed
# monoclonal antibody 3C4 = biological target: T3, monoclonal antibody 3C4; assay: phage ELISA, 10^9 phagemid, wells coated with mAb 3C4
# T3 construct: Mouse IgG1, ECACC 02110741; also called mAb 3C4; 3C4 (3CY)
# Protocol: Microtitre plates were coated with 100 μL, 1 μg/mL mAb 3C4 or unrelated control antibody in PBS over night at 4 C. Remaining binding sites were blocked with 20 mg/mL bovine serum albumin (BSA) in PBS for 1 h. Some wells were only coated with BSA. Monoclonal packaged phagemids were added at a concentration of 10¹⁰ to 10⁸ cfu per well in PBS and incubated for 1 h. Preparations of packaged phagemids were centrifuged to remove aggregates. Wells were washed 6 times with PBS containing 0.1% Tween-20 and 3 times with PBS. For detection of bound phages 100 μL of horse-radish peroxidase (HRP) conjugated […] antibody (e.g. Pharmacia) diluted 1/5000 in PBS was added to each well and incubated for 1 h at ambient temperature. ELISA plates were washed 5 times with PBS containing 0.1%
# Tween-20 and 3 times with PBS. The chromogenic substrate o-Phenyldiamine in citric acid, pH 4.0 supplemented with H₂O₂ was added and the color generating reaction was stopped after 2-5 min by addition of […].
# T3 sequence (VH, as listed by the source, chain 1 of 2): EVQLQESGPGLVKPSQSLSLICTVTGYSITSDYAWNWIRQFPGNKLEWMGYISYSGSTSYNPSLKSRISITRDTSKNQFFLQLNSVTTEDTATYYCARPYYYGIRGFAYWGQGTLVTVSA
# T3 sequence (VL, as listed by the source, chain 2 of 2): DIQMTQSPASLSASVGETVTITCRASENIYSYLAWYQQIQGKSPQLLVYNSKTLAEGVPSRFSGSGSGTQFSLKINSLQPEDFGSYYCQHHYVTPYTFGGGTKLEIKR
binder,measurement,setting,value
"monoclonal antibody TC2 (antibody, V domains shown, Mouse IgG1, ECACC 02110742; also called mAb TC2) VH: QVQLKQSGPGLLQPSQSLSITCTVSGFSLTYYGVHWVRQSPVKGLEWLGVIWSGGDTDYDTTFISRLSISKDNSKGQVFFKMTSLQTDDTAIYYCARGRTYGIHFDYWGQGTTLTVSS VL: DIVMSQSPSSLAVSVGEKVTMSCKSSQSLFNSRTRKNYLAWYQQKPGQSPKVLIYWASTRESGVPDRFTGSGSGTDFTLTISSVQAEDLAIYYCKQFYDLWTFGGGTKLEIKR",holo/apo Specificity (-fold),[1],1 fold
same,binding result,[2],binds
"CSGLYPWDYFMCS (disulfide 1-12 (inferred); also: displayed on phagemid) [phagemid CS1-29p, displayed peptide CSGLYPWDYFMCS]",ELISA (absorbance units),monoclonal antibody 3C4,0.136 absorbance units
